Experimental data reported in publication PMC5458078, “Global mapping of CARM1 substrates defines enzyme specificity and substrate recognition” (Nature Communications, 2017).

System: MCF7 CARM1 KO cells
Assay: Total cellular ADMA levels, stable expression, western blot
Type: cell-based, human
Conditions: stable expression in MCF7 CARM1 KO cells; compared with CARM1 FL and CARM1 28–608
Source text: We next sought to assess the impact of CARM1 N-terminal deletion in cells stably expressing mutant enzymes. […] To quantify the affected ADMA-containing peptides in MCF7 CARM1 KO and CARM1 140–608 expressing cells, we employed our quantitative MS method (Fig. 1a) using CARM1 28–608 as a reference for normalization (Supplementary Data 4). […] The magnitude of reduction in CARM1 140–608 cells, however, was slightly less than that in the CARM1 KO cells. […] As indicated by R^2 of 0.65, noticeable differences existed between the levels of ADMA-containing peptides in cells expressing the N-terminal truncation of CARM1 and CARM1 28–608 control (Supplementary Fig. 4f).
Cells were collected by trypsinization, washed with Dulbecco's phosphate buffer saline (Life Technologies, Carlsbad, CA) and lysed by suspension in lysis buffer (50 mM Tris-HCl pH 8.0, 150 mM NaCl, 10% glycerol, 0.5% Triton X-100 and 1 × protease inhibitor cocktail (Sigma-Aldrich)). After brief sonication followed by centrifugation, total protein was quantified using the BioRad Protein Assay (BioRad, Hercules, CA), and 20 μg protein was resolved by SDS–PAGE. Proteins were transferred to a nitrocellulose membrane for 1.5 h at 350 mA. Membranes were blocked with 5% nonfat milk at room temperature for 1 h and incubated overnight with diluted primary antibody at 4 °C. […]

B1: CARM1 140–608: CARM1 140–608 lacks the first 140 residues encompassing the EVH1 domain (protein)
chain: RTEESSAVQYFQFYGYLSQQQNMMQDYVRTGTYQRAILQNHTDFKDKIVLDVGCGSGILSFFAAQAGARKIYAVEASTMAQHAEVLVKSNNLTDRIVVIPGKVEEVSLPEQVDIIISEPMGYMLFNERMLESYLHAKKYLKPSGNMFPTIGDVHLAPFTDEQLYMEQFTKANFWYQPSFHGVDLSALRGAAVDEYFRQPVVDTFDIRILMAKSVKYTVNFLEAKEGDLHRIEIPFKFHMLHSGLVHGLAFWFDVAFIGSIMTVWLSTAPTEPLTHWYQVRCLFQSPLFAKAGDTLSGTCLLIANKRQSYDISIVAQVDQTGSKSSNLLDLKNPFFRYTGTTPSPPPGSHYTSPSENMWNTGSTYNLSSGMAVAGMPTAYDLSSVIASGSSVGHNNLIPLANTGIVNHTHSRMGSIMSTGIVQGSSGAQGSGGGSTSAHYAVNSQFTMGGPAISMASPMSIPTNTMHYGS
modifications: left off: FLAG, end not stated, kept
notes: CARM1 140–608 lacks the first 140 residues encompassing the EVH1 domain
**Q.** B1 was tested. Which “Cellular protein (ADMA) methylation levels” value did it give?
**A.** drastically decreased levels of cellular protein methylation
